The record followed here is patent US20190338027A1 (ALLAKOS, published 2019).

This assay deals with human Siglec-8 on lung mast cells from COPD patients (human, UniProt Q9NYZ4 17-499). The assay can be described thus: cell-based or functional assay.
Chain of human Siglec-8 on lung mast cells from COPD patients (Q9NYZ4 17-499): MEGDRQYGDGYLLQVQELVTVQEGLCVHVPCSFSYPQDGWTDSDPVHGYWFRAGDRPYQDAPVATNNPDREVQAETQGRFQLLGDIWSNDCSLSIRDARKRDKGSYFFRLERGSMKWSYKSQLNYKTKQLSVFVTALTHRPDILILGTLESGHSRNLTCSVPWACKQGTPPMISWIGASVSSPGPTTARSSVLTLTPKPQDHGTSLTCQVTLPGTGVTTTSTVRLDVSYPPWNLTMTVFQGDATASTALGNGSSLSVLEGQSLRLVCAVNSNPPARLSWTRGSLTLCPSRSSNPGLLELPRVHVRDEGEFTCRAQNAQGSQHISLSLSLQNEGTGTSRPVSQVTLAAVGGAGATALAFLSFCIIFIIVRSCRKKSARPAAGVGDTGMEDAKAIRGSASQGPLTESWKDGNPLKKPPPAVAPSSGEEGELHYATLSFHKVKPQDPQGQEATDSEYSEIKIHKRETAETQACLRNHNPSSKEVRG

B1: anti-Siglec-8 IgG4 antibody (HEKA) (antibody, V domains shown)
VH: EVQLVESGGGLVQPGGSLRLSCAASGFSLTIYGAHWVRQAPGKGLEWVGVIWAGGSTNYNSALMSRFTISKDNSKNTVYLQMNSLRAEDTAVYYCARDGSSPYYYSMEYWGQGTTVTVSS
VL: EIVLTQSPATLSLSPGERATLSCSATSSVSYMHWFQQKPGQAPRLLIYSTSNLASGIPARFSGSGSGTDFTLTISSLEPEDFAVYYCQQRSSYPFTFGPGTKLDIKR
In the case of B1, the “decrease in VEGF secreted into the cell supernatant by COPD lung tissue homogenates incubated overnight with antibody, relative to isotype control antibody” value was ~50%.
